The values that follow come from patent US20130064763A1 (NATIONAL RESEARCH COUNCIL OF CANADA, published 2013).

The target of one test is T1, recombinant human ICAM-1 (human, UniProt P05362 28-480).
T1 construct: Bought recombinant protein; In SPR it was captured on an SA sensor chip; also called intercellular adhesion molecule 1; CD54
The test is described as follows: SPR (Biacore 3000), ICAM-1 captured on SA chip, monomeric VHH injected, 25 C. On the procedure:
Three clones (5-5, 11-4, and 34-1) obtained in Example 4 were individually passed through size exclusion columns, Superdex 75 (GE Healthcare) in 10 mM HEPES, pH 7.4, containing 150 mM NaCl, 3 mM EDTA; monomeric sdAb fractions were collected and protein concentrations were determined by measuring A₂₈₀. SPR analyses were performed with Biacore 3000 instrument (GE Healthcare). All measurements were carried out at 25° C. in 10 mM HEPES, pH 7.4, containing 150 mM NaCl, 3 mM EDTA and 0.005% surfactant P20 (GE Healthcare). Approximately 700-900 RUs of the recombinant ICAM-1 was captured on SA sensor chip (GE Healthcare) at a flow rate of 5 μl/min. Various concentration of the monomeric VHH were injected over the ICAM-1 surface, using a SA surface as a reference, at a flow rate of 40 μl/min. Surfaces were generated by washing with running buffer. Data were analysed with BIAevaluation 4.1 software.
In general terms: SPR reads the build-up and loss of mass on a sensor chip optically.

Test [1] concerns the target T2, rat ICAM-1 on LPS-induced rat brain endothelial cells (SV-RBEC) (rat, UniProt Q00238 28-545).
T2 construct: whole, on cells; Endogenous protein on fixed cells
T2 sequence (looked up): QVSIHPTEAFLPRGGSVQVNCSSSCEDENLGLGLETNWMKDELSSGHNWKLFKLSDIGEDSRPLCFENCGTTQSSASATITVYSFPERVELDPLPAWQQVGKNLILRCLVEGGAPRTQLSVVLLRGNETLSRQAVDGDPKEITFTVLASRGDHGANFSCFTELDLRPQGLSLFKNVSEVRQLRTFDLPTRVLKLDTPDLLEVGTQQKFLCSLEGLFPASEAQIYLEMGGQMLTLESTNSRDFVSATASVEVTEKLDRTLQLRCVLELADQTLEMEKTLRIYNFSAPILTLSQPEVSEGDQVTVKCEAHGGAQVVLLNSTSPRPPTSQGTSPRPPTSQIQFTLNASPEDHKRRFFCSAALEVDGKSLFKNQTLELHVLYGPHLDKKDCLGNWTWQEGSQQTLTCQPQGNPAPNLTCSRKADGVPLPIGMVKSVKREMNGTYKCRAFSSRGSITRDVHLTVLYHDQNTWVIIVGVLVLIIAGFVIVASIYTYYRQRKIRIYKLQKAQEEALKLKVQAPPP
As to the kind of experiment: immunofluorescence with Cy5.5-labelled sdAb on fixed SV-RBEC cells with or without LPS. On the procedure:
Rat brain endothelial cells (SV-RBEC) were cultured on coverslips for 3 days in DMEM and 10% FBS. ICAM-1 expression was induced by adding 5 μg (1 mg/ml) of lipopolysaccharide (LPS; Sigma) overnight. Cells were then washed 3× with cold PBS, fixed with 3.7% formaldehyde for 20 min, washed again 3× in PBS at RT, and then blocked with 5% of normal goat serum/PBS for 1 h at RT. 25 μg anti-ICAM-1 IgG or 50 μg anti-ICAM-1 single domain antibodies (34-1, 11-4, 5-5) labelled with Cy5.5 (red) were incubated for 1 h at RT then washed 3× in PBS. The washed cells were incubated in 1:500 WGA-FITC/PBS for 1 min on ice, for membrane staining (green) then washed again 3× with PBS. Coverslips were then mounted in DAKO mounting medium containing 2 μg/ml of Hoechst for nuclear staining (blue).

Test [2] addresses T3, mouse ICAM-1 in vivo (vasculature and atherosclerotic plaques of ApoE KO mice) (mouse, UniProt P13597 28-537).
T3 construct: whole, on cells; Endogenous protein in the living animal; also called ICAM-1 receptor
The test is described as follows: in vivo near-infrared optical imaging of ApoE KO and control mice after injection of Cy5.5-labelled sdAb. On the procedure: Anti-ICAM-1 antibodies were labelled with Cy5.5 succimidyl ester using methods recommended by the manufacturer (GE Healthcare). […] The presence of plaques in the aorta of atherosclerotic mice (Example 6) was visualized monthly via tail vein injection of 50 μg of anti-ICAM-1 sdAb using non-invasive in vivo optical imaging. In vivo imaging studies were performed using a small-animal time-domain eXplore Optix MX2 pre-clinical imager (Advanced Research Technologies, Montreal, QC) at 4, 24, 48, and 72 h after injection. For imaging, mice were first anesthetized with isofluorane, and then positioned on an animal stage in a chamber that allows for maintenance of gaseous anesthesia. A pre-injection scan was routinely performed to determine baseline fluorescence level. At the end of the study, animals were euthanized and perfused, organs were removed and imaged. […] The fluorescence emission at 700 nm was collected by a highly sensitive time-correlated single photon counting system and detected through a fast photomultiplier tube. The data were recorded as temporal point-spread functions (TPSF) and the images were reconstructed as fluorescence concentration maps using ART Optix Optiview analysis software 2.0 (Advanced Research Technologies, Montreal, QC).

T1 sequence (P05362 28-480 limits assumed): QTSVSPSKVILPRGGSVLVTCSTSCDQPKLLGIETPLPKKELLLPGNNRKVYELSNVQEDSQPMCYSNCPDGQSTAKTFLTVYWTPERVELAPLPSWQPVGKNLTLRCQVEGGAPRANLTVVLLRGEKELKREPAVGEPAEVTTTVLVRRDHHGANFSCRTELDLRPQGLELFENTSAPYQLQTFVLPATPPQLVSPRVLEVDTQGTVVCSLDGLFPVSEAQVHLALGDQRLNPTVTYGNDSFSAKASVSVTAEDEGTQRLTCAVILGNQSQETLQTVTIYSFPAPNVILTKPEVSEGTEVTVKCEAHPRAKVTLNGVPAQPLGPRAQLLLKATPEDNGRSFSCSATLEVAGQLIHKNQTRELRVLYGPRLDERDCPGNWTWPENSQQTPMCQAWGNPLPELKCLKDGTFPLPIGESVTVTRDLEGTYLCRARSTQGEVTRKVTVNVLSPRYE
T3 sequence (P13597 28-537): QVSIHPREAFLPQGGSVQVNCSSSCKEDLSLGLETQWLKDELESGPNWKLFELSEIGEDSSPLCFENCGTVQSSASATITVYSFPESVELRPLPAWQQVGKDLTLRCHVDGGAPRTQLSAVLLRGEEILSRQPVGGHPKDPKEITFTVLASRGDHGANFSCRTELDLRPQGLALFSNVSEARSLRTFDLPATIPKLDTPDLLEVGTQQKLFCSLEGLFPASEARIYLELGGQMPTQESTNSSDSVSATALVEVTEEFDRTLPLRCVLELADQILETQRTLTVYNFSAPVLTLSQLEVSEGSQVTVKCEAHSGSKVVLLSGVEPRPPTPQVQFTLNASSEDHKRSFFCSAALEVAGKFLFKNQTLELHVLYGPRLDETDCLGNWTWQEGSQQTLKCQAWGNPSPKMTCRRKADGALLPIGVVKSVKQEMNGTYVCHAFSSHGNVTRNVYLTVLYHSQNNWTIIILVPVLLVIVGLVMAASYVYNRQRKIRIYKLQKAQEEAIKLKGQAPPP

B1: anti-ICAM sdAb clone 5-5 (VHH)
VHH: QVKLEESGGGLVQAGDSLRLSCAASGRTVNAFRMGWYRQAPGKQRERVAVITAGGTTSYIDSVKGRFTISRDNAKNTVYLQMNSLKPEDTAVYYCAAIDYDSRGQGTQVTVSS
notes: Soluble His6-tagged VHH expressed in E. coli from pSJF2, purified by IMAC, monomeric by SEC; also called llama sdAb clone 5-5
As usually defined, the Kd is the free concentration of one partner at which half of the binding sites on the other are occupied at equilibrium, for simple one-to-one binding. Usually koff stands for the rate constant with which the complex falls apart. Usually kon stands for the rate constant with which the complex forms. B1: in the test with recombinant human ICAM-1, the Kd turned out to be 60 nM, the koff was found to be 0.004 s⁻¹ and the kon was 70000 M⁻¹ s⁻¹.

B2: anti-ICAM-1 sdAb clone 5-5 labelled with Cy5.5 (VHH)
VHH: B1 VHH
modifications: labelled with Cy5.5 succimidyl ester, dye/antibody ratio of two; labelled residues not stated
notes: Cy5.5 conjugate of m2
Take B2: the binding result in test [1] is given as “binds”.

B3: anti-ICAM-1 sdAb clone 34-1 labelled with Cy5.5 (VHH)
VHH: QVKLEESGGGLVQPGGSLRLSCAASGSIFSINDMGWYRQAPGKQRELVARITRDGSAAYEDSVKGRFTISRDNAPNTVFLQMNGLKPEDTAVYYCNAEIITTQTLGRMLGEYWGQGTQVTVSS
modifications: labelled with Cy5.5 succimidyl ester, dye/antibody ratio of two; labelled residues not stated
notes: Cy5.5 conjugate of m3
With B3, the binding result in test [1] is “binds”.

B4: anti-ICAM sdAb clone 34-1 (VHH)
VHH: B3 VHH
notes: Soluble His6-tagged VHH expressed in E. coli from pSJF2, purified by IMAC, monomeric by SEC; also called llama sdAb clone 34-1
Take B4: in the test with recombinant human ICAM-1, the Kd is 10 nM, the koff turned out to be 0.002 s⁻¹ and the kon was 100000 M⁻¹ s⁻¹.

B5: anti-ICAM-1 sdAb clone 11-4 labelled with Cy5.5 (VHH)
VHH: QVQLVESGGGLVQPGGSLRLSCAASGSISSLYVMGWYRQAPGKQRELVADITSSGSIYYVDSLKGRFTISRDNARSTVYLQMNSLEPEDTAVYYCMAHVRQDSGSEYLTYWGQGTQVTVSS
modifications: labelled with Cy5.5 succimidyl ester, dye/antibody ratio of two; labelled residues not stated
notes: also called anti-ICAM-1 sdAb 11-4-Cy5.5; anti-ICAM-1 11-4 sdAb-Cy5.5
As for B5, the binding result in test [2] and in test [1] was “binds” throughout.

B6: anti-ICAM sdAb clone 11-4 (VHH)
VHH: B5 VHH
notes: Soluble His6-tagged VHH expressed in E. coli from pSJF2, purified by IMAC, monomeric by SEC; also called llama sdAb clone 11-4; anti-ICAM-1 sdAb 11-4
Regarding B6, in the test with recombinant human ICAM-1, the Kd turned out to be 0.9 nM, the koff was 0.002 s⁻¹ and the kon is 2e+06 M⁻¹ s⁻¹.
